Substrate in this data set: BHET
The settings on record: 120 h.

B1: unnamed (protein)
chain: MKTTVSRIKGLSVAAAMALASLATPALSQTSAPTSASLNATSGPLSVSTASVLLPVGFGGGTIYYPTVAGKYGVIAISPGFTATQSSIAWLGRRIATHGFVVITMNTITTLDQPDSRATQLMAALRYVLNSSGTAVRARIDSTRLAVAGHSMGGGGSLIAARDNPTLKASYPMTPWNLSTNFSTVRVPTMIIGADGDTIAPVAVHARPFYASLPSSTYKAYGELNNGTHFSPNSTNTPIGRYAVAWMKRFVDGDTRYSPFLCGAEHAAYATGWVFDRYNQNCPY
On to B1, for which the plate clearing entry is given as “not clears the plate”.

B2: unnamed (protein)
chain: MHQGIHMERKNIRRRWAIGLLGMLVLAASAHAQTNPHQKGPDPTSASLNATSGSFSVATSSVSSLGAVGFGGGTVYYPTTTGTYAVLAICPGFTATQSSIAWLGRRIATHGFVVITIDTNSTLDQPPSRATQLMAALNYVTNSSSATVRSRVDASRRGVAGHSMGGGGTLYAARDNPSLKAAVPLTAWSTLKSFSSVQVPTLVVGAESDSIASVSSHSIPFYNSLSTSLDKAYAELNGATHFAPNSTNTPIGRYSVSWVKRFMDNDTRYTPFLCGAPHQSYATSLVFSDYRSTCPY
Turning to B2, the plate clearing entry was “not clears the plate”.

B3: unnamed (protein)
chain: MKTIERGQRRCAVGLGLLLLAAAAHAQTNPLAKGPDPTSALLNANAGPFAIASTAVPSSVAGFGGGTVYYPTAAGSYATVAICPGFTATQSSIAWIGQRMASHGFVAMTINTNSTFDQPPSRATQLMAALRYLTNSSNSTVRARVDASRLGVAGHSMGGGGTLMAARDNTTLKAAVPLTPWSQTKSFSTVRVPTLVVGAENDTVAPVAQHSIPFYTSLPASLDKAYAELNNASHFAPNSTNTAIGRYSVAWVKRFMDNDTRYEPFLCGAPHTAFATPTVFSDYRSTCPYQ
For B3, the plate clearing entry is recorded as “not clears the plate”.

B4: unnamed (protein)
chain: MRTRGTRPLRRLAAIFLLALVIAACDTKGPDPTEQILTASSGPFGVATLAVPSSAGFGGGTIYYPTGVEGPFAVISVTPGFTETAASLDWGPRLASHGFVAIVINTSNIFEDPTTRSNEQRQALTYAAAQSDSASSPIHGLVDGNRRGVTGHSMGGGGTLISAQADPAIRAAVPLAPWNGSPTFSGITVPTLFIACQNDVIAPVANHASPMYNSIPASTHKSYLSIAGGDHFCANAASGGSGQVGKFVVAFFKRFLDGDTRYDPWVCGASKPAVTSVINEVRSTCPF
Consider B4, for which the plate clearing entry is reported as “not clears the plate”.

B5: unnamed (protein)
chain: MNKSILEKMVVGTSALLFSLSAFSFTPDPTPDPDPEPEPCQGECDFTRGPAPTSSYLEASSGPYSVDTVGVSRSVSGFGGGTIYYPTSTSGTMGAIAIVPGFLAGESSISWWGPRLASHGFVVITIATNSTFDQPASRSTQLSRALDYVVSQSNSNSSPISGKVDSTRLGAMGWSMGGGGALRLASGNRLAAAIPLAPWNTGSNSFNQIDTPTLIFACENDTTARVGTHASPFYNRIPASTDKAYLEINNGSHSCANGGGSNGGLLGKYGVSWMKRFIDEDTRYSQFLCGPNHEANSAISEYRETCNY
As to B5, the plate clearing entry is recorded as “not clears the plate”.

B6: unnamed (protein)
chain: MKNTAFRKVSVVAVTFLLSVTAFAGGGGGGGGDNSGALPLPDTCNSNCGYELGPNPSLSFVQANRGPQPTTTTNVSSSVDGFGGGTIYYPTNISQEMAAISIAPGFTNTQSAVAWWGPVLASHGFVVITIDTNGRFDQPESRSRQLDAALNHLISESDRSSSPISGLVDRNRLATMGFSMGGGGSLRSASRNRLSAAVPLAPWSVGGNNFNQIGVPTMIMACENDGTAGINQHARPFYNAIPGSTDKVYLEINDGPHNCANGNNINNATLSTYGVSWMKRFLDKDRRFNQFLCGPNHEANSRISQFRDTCLF
In the case of B6, the plate clearing entry is listed as “not clears the plate”.

B7: unnamed (protein)
chain: MMKSIIARLAIGTSVLLFSVSAFSFTPGPTPDPDPDPNPNPCEVDCDFSRGPNPTASYLEAASGPYTVRTMRVSSSVTGFGGGTIHYPTGTTGKMGAIAVVPGFLAGESSISWWGPRLASHGFVVITIATNSAFDQPASREAQLGRALDYVIAQSNASGNAISGMVDSSRVGAMGWSMGGGGTLRIASGGRLSAAIPLAPWHTGSNDFNQISTPTMIIACENDGTAPVNSHASPFYNRIPASTDKAYLEINNGGHSCANGGGSNGGLLGKYGVSWMKRFIDKDTRYNQFLCGPNHASNSAISEYRETCNY
Turning to B7, the plate clearing result is recorded as “not clears the plate”.

B8: unnamed (protein)
chain: MEMFVVPKINITFNEVAVMPSSIPVKILTGVCSLLFSVSAFSFTPSPDPDPDPGPGPCQEDCDFTRGPNPTSNYLEASSGPYNVSTIGVSRSVSGFGGGTVHYPQGTTGTMGAIAIVPGFLAGESSIAWWGPRLASHGFVVITIATNSTFDQPGSRSTQLGRALDYVINLSNSSSSPISGMVDSTRVAAMGWSMGGGGTLRLASGGRLSAAIPLAPWNTGSNSFNQITTPTLILACENDSTAPVSVHASPFYNRIPSSTDKAYLEINNGSHSCANGGGANGGLLGKYGVSWMKRFIDDDARYSQFLCGPNHQANSAISEYRDTCNY
With B8, the plate clearing result is reported as “not clears the plate”.

B9: unnamed (protein)
chain: MKHDRRYRWGRLAGLAALLLAPVAAQAQTVLFSEDFEGGLGAFSAGGNVFTATVFNGTSGVRLRGGSSDGVITSPPISTEGFSEVTLFFERTTDGSLDFGEFGIAEVSVDGGATFAVVEATQGGPAAVSIPLGAAAADQAAVVLRFRIAASSFFEDIEVDNVVLEGVGSGDPGPGPDPDPGPDPDPDPDPEPEPDNPFARGPDPTEATLEASSGPFAVDSFRPSSTPGFGAGTIWYPSGTNEGPFAAIAVAPGFVGGESTIDWLGSRLASHGFVVITISTSSLFDFPDSRASQLLAALDIVIAESNGSSPISGLVDPDRTGLSGHSMGGGGSLIATEDHPSIDAVVPLAPWNPSTNFSAIDQPTLIVACENDTVAPVNQHASPMYESISSSVDKAFLEIDGADHFCVNSGNAQQDTLGKFIVSWMKRFLDQDTRYDPFLCGPDHEADPDISEFRDTCPF
Turning to B9, the plate clearing result is recorded as “not clears the plate”.

B10: unnamed (protein)
chain: MRETSLHRSPAPALAQACTRAASRLRFAALGLAAGLLSLAAQAQINPDQRGPNPTAASLEATAGPYAVKTSKVASQSNFGGGTVYFPDSNEGPFGVIAIAPGFTEGQSVNSWWGNRLASHGFVVITASMKNVLQYPTPRAKELVAALNYVVAQSQTSGSPYFGKVDPARRGVMGHSMGGGGTLEVVRDDPTIKAAIPLAPWDLSKVFTQVTTPTLIVACEKDAIAPVNTHASTFYDSLSASLDKAFLELKGADHFCTNTSTTAARKTVLGKYGVAWMKRFIDSDTRYAPFLCGATHEAYLSASSSVISRYKSSCPY
For B10, the plate clearing entry is “not clears the plate”.

B11: unnamed (protein)
chain: MNALSWTPSPTPNPDPTPDPTPCQGDCDFTRGPNPTLSSVATMGPYSVSTQSVSSSVSGFGGGTIHFPTNTAGTMGAIAVAPGFLSPESSIKWWGPRLASHGFVVITIATNSVFDQPNSRETQISRALDYVINQSNSSNSAISGMVDNTRVGAMGWSMGGGGALRLASGDRLSAAIPLAPWHQGSNSFNQLETPTLIIACENDVVAPVNNHASPFYNAIPSTTDKALLEINNGAHSCANGGGTNGGLLTKYGVSWMKRFIDNDLRYDQFLCGPDHAANNAVSEYRGTCNY
On to B11, for which the plate clearing entry is given as “not clears the plate”.

B12: unnamed (protein)
chain: MKIKNRTACTTAAPSPARRRLAMASLAAAGLLCSFTAQAQVAVFQENFTSGLGSFTAAGSATNSSGAARLAGCYGCTDGAITSGPISTVGFSSLSLSFDRVTSGLDIGEGGIAEYSTNGSTWTALETTRATSNGRVTFNLPAAAAGQTGLRLRFRIDANLSSETYTVDNIQLTGISGDGGGTNPHAKGPAPTASLLEASTGPFTYASTNVSSLSADGYGGATIFHPTNVAGPFAAIAISPGYTGTKSTMTWWGERLASHGFVVAVIDTNSIYDQPYQRAPQLMAALRQLVTFSNTSSHPIYRKVDPNRLGVMGHSMGGGGTLIAARDNPTLKAAIPLAPWNTSTNFSSVSVPTLVVACESDSIAPVNSHASPFYNSLPSSTRKAFMEMNNGDHFCVMNGNDFTRIMGKYGVAWMKRFLDNDTRYSPFLCGAQHQADLSNSQLSEYRENCPY
Regarding B12, the plate clearing entry is on record as “clears the plate (z > 3 vs empty vector)”.

B13: unnamed (protein)
chain: MVRGVRAALRLASLVAVAVLPACGSGGGSSPTPASTPMATPIAPTPAPTLAPAPPTSPPFTRGPAPSTSALEATEGPFAVAQLTIDRTAAAGYGAGTVSYPTDTREGPFGAIAVSPGYTGVQRSMQWFGPRLASHGFVVIVIDTLSLTNNAEARAAQLIAALNQLIALSGTSGHPLQGKVDGNRLGVIGHSYGGGGALVAARDNPALKAAVPLAPFYESNDFSRLTVPTLVVGCQRDTVAAVSQRAIPMYESIPASVSKAYLELAGGDHLCVETGNGNKAIQGKYTVAWMKRFLDDDVRYSPYLCGSPHQADLAGDAVSAYRETCPY
For B13, the plate clearing entry was “not clears the plate”.

B14: unnamed (protein)
chain: MFDDMNHTTQSKFSRLLQVSLATSALALSLGVQAQQTGADPTTASIEQAGPLAVANVKVATPSGYGSGTVYYPTTGSAYGLVSVTPGFTEGQSAINWLGPLLASHGFVVVTIGTKTILDVPTNRAKQMMAALAQVTALSATKTSPFAGKVDASRLAVMGHSMGGGGSLDAARDNPNLKASIPLAPWETTKDYSKTTVPTLIVSCESDAIAPVKDHANKFYDSFTPTLTKALLEMKGASHFCTNSSANAATKTLIGKYSISWLKRFVDGDTRYSPFLCGAPHQADLAGSLISTYKENCPY
Take B14: the plate clearing entry is “not clears the plate”.

Values taken from the PETadex activity labels.
